According to US20200121775A1:

Molecular target: HLA A02:01 class I molecule with β2-microglobulin (human)
Assay: REVEAL MHC class I binding/stabilization assay (ProImmune)

**Q.** How did the REVEAL Score turn out when positive control peptide (REVEAL assay) was run?
**A.** The REVEAL Score was 100 score.
